In this test the target is His-tagged human IL-18BP (human) (UniProt O95998). Briefly: alphaLISA of free IL-18BP. For orientation: Alpha assays give light when donor and acceptor beads are brought close together.

pKd: −log10 of the molar value.

Sequence of His-tagged human IL-18BP (human) (O95998 31-194): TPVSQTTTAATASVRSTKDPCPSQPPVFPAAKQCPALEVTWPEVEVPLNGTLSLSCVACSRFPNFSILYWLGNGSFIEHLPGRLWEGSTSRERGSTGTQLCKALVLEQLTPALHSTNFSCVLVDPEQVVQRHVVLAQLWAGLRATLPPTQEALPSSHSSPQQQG
Sequence of IL-18 polypeptide of SEQ ID NO: 1 (native sequence, human IL-18 37-193) (Q14116 37-193): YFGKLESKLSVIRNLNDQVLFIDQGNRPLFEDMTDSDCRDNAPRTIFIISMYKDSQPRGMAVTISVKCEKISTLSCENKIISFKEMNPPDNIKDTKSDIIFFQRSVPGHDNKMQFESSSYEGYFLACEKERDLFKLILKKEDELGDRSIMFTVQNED

The substance “IL-18 polypeptide of SEQ ID NO: 1 (native sequence, human IL-18 37-193) (from UniProt Q14116 37-193) (ligand)” gave a negative-log Kd (pKd) of 9.17.
Next, “Modified IL-18 polypeptide of SEQ ID NO: 3 (Y01G, F02A, E06K, M51G, K53A, D54A, S55A, T63A) (from UniProt Q14116 37-193) (ligand)”: 6.01; “Modified IL-18 polypeptide of SEQ ID NO: 4 (K53A) (from UniProt Q14116 37-193) (ligand)”: 6.29; “Modified IL-18 polypeptide of SEQ ID NO: 5 (S55A) (from UniProt Q14116 37-193) (ligand)”: 7.97.
In turn, “Modified IL-18 polypeptide of SEQ ID NO: 6 (E06K) (from UniProt Q14116 37-193) (ligand)” showed a pKd of 9.89.
Next, “Modified IL-18 polypeptide of SEQ ID NO: 7 (E06K, K53A) (from UniProt Q14116 37-193) (ligand)”: 6.89; “Modified IL-18 polypeptide of SEQ ID NO: 8 (E06K, S55A) (from UniProt Q14116 37-193) (ligand)”: 7.91.
Next, “Modified IL-18 polypeptide of SEQ ID NO: 9 (K53A, S55A) (from UniProt Q14116 37-193) (ligand)”: 6.30.
With “Modified IL-18 polypeptide of SEQ ID NO: 10 (E06K, K53A, S55A, T63A) (from UniProt Q14116 37-193) (ligand)”, the negative logarithm of the Kd (pKd) was 6.09. Compared with the last substance, the pKd is 0.21 log units lower.
With “Modified IL-18 polypeptide of SEQ ID NO: 15 (C38S, C68S, C76S, C127S) (from UniProt Q14116 37-193) (ligand)” the figure was 10.52.
With “Modified IL-18 polypeptide of SEQ ID NO: 16 (C38S, C68S, C76S, C127S, K70C) (from UniProt Q14116 37-193) (ligand)” the figure was 9.68; with “Modified IL-18 polypeptide of SEQ ID NO: 18 (E06K, K53A, T63A) (from UniProt Q14116 37-193) (ligand)”, 6.47; with “Modified IL-18 polypeptide of SEQ ID NO: 19 (T63A) (from UniProt Q14116 37-193) (ligand)”, 8.59.
In turn, “Modified IL-18 polypeptide of SEQ ID NO: 20 (E06K, T63A) (from UniProt Q14116 37-193) (ligand)” had a pKd of 9.08.
With “Modified IL-18 polypeptide of SEQ ID NO: 21 (K53A, T63A) (from UniProt Q14116 37-193) (ligand)” the figure was 6.70; with “Modified IL-18 polypeptide of SEQ ID NO: 22 (E06K, K53A, C38S, C68S, C76S, C127S, K70C) (from UniProt Q14116 37-193) (ligand)”, 6.35; with “Modified IL-18 polypeptide of SEQ ID NO: 23 (K53A, T63A, C38S, C68S, C76S, C127S, K70C) (from UniProt Q14116 37-193) (ligand)”, 6.04.
With “Modified IL-18 polypeptide of SEQ ID NO: 70 (E6K, K53A, C38S, C76S, C127S) (from UniProt Q14116 37-193) (ligand)” the figure was 6.36; with “Modified IL-18 polypeptide of SEQ ID NO: 71 (E6K, C38S, K53A) (from UniProt Q14116 37-193) (ligand)”, 7.30.
“Modified IL-18 polypeptide of SEQ ID NO: 71 with a 30 kDa PEG attached at residue C68 (E6K, C38S, K53A, C68-30kDPEG) (from UniProt Q14116 37-193) (ligand)” gave a negative-log Kd (pKd) of 7.23.

The term pKd denotes the negative decadic logarithm of the Kd, by convention in mol/L. High values mean a low Kd, low ones a high Kd.
